Test results taken from paper doi:10.1101/2024.12.05.626941.
One block for each substance: values may come before it.

Assays:
Assay in all cases: SEC
[1] = biological target: Physcomitrella patens adenosine kinase 2 (PpADK2) (Physcomitrella patens)
[2] = biological target: Zea mays adenosine kinase 1 (ZmADK1) (Zea mays)
[3] = biological target: Zea mays adenosine kinase 2 (ZmADK2) (Zea mays)
[4] = biological target: Zea mays adenosine kinase 3 (ZmADK3) (Zea mays)

stoichiometry N [1]: 2
Substance: Physcomitrella patens adenosine kinase 2 (PpADK2) (enzyme)

stoichiometry N [2]: 2
Substance: Zea mays adenosine kinase 1 (ZmADK1) (enzyme)

stoichiometry N [3]: 2
Substance: Zea mays adenosine kinase 2 (ZmADK2) (enzyme)

stoichiometry N [4]: 2
Substance: Zea mays adenosine kinase 3 (ZmADK3) (enzyme)
